Results: the supplement of paper PMC10567573

B1: ADAMTSL2 (parent)
chain: KKPPEESTCFERPCFKWYTSPWSE
B2: WDR88 (parent)
chain: LLTITKAHSNAISNCCFTFSGHFL

Variants of: B1
Test: protein stability index of a GFP-peptide fusion (GPS, HEK-293T) (PSI 1-6); higher = more stable
Details: c terminus: a fixed tail appended
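Note: lentivirally expressed fusions sorted by FACS into six bins by GFP to DsRed ratio, PSI derived from sequencing read proportions per bin multiplied by bin number.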

Protein stability index of substitutions, site by site:
E24: Y 2.11; D 2.76; S 2.07; K 1.82; N 1.6
P13: K 2.58
C14: K 2.69; Q 2.68; N 2.98
S23: L 2.34
Y18: H 2.97; L 2.45; V 2.22; D 3.48
F10: P 3.19; L 2.81
K2: P 2.27; I 1.78
T19: V 2.78
E5: W 2.27; G 2.2
P3: W 2.6; M 2.29
T8: H 2.29
R12: L 2.04; I 2.03; F 1.71; N 2.55
E11: S 2.82

Variants of: B2
Test: as above
Details: c terminus: a fixed tail appended

Protein stability index, by site and new letter:
L24: K 2.93; I 3.37; E 1.77; M 2.98; F 3.56; Q 2.64; A 2.74; R 2.28; S 1.09; H 2.63; Y 3.97; W 1.58; N 3.3; V 1.91; T 2.47; C 2.68; P 2.46; D 1.92; G 2.88
F19: T 2.52; V 2.15; N 2.33; L 2.82; C 2.77; R 2.66; P 1.88; Q 1.63; W 2.32; E 1.77; S 2.56; K 1.82; Y 2.82; H 3.04; M 1.69; G 2.62; I 2.85; D 2.38; A 2.16
T18: M 2.19; E 1.84; A 3.52; S 2.58; K 2.33; D 2.03; L 2.92; C 2.47; N 3.85; R 2.93; V 3.09; I 2.34; P 2.54; H 2.53; Y 2.76; F 2.9; G 3.29; W 2.86
G21: V 2.89; I 2.97; D 2.75; T 3.34; H 2.53; F 2.41; Y 2.25; C 2.31; N 2.42; P 3; L 2.46; S 3.32; E 2.6; M 3.69; Q 2.92; R 1.97; W 2.94; K 2.77; A 2.88
F23: I 2.79; V 1.99; M 3.51; K 1.94; W 3.34; S 2.72; G 2.05; T 1.91; Y 2.94; D 1.95; A 3.02; H 2.91; E 2.1; N 1.99; P 2.96; Q 1.79
N10: V 2.49; C 4.06; A 2.64; Q 3.31; S 3.46; D 3.19; F 3.94; P 2.89; T 3.75; K 2.12; I 3.1; H 2.75; R 2.99
A7: Y 3.09; W 4.07
A11: M 2.82; L 3.15; P 3.08; Q 3.19; K 2.66; T 3.57; D 2.27; C 1.97; V 2.69; S 3.22; F 2.93; E 3.24; W 2.7; G 3.47; H 2.82; N 3.27
H22: F 2.02; W 3.16; K 2.06; T 2.83; S 2.34; G 2.96; E 2.89; I 3.1; Y 2.93; A 2.56; C 3.5; Q 2.78; L 3.61; M 3.59; V 2.67; D 2.31; R 1.27; P 2.51; N 2.9
I12: N 2.49; A 2.3; T 2.98; C 3.49; E 1.77; V 3.69; F 3.3; Q 2.57; L 3.56; H 3.51; S 3.14; R 2.74; K 2.4; P 2.55; D 1.96; M 3.38; G 2.96; Y 2.33
S20: Y 2.36; C 2.69; A 1.09; P 2.34; Q 2.88; F 2.6; K 2.04; V 2.54; G 2.99; I 2.07; L 2.94; E 2.51; R 3.76; T 2.67; N 2.94; M 2.56; W 2.06; D 1.98
C15: S 2.97; Y 2.88; R 3.77; A 4.06; P 2.19; G 2.42; N 2.98; Q 3.52; M 2.19; F 3.46; D 1.84; V 3.3; T 3.89; I 3.44; L 2.27; H 2.78; W 2.31; E 2.58; K 2.11
S13: P 3.02; R 2.7; K 2.03; L 3.23; D 2.2; Q 3.54; T 3.02; F 3.89; V 2.2; N 2.6; E 2.6; A 2.17; G 2.7; H 3.44; C 2.35; W 3.57; M 3.08; I 3.51; Y 2.48
F17: G 1.69; V 2.88; S 1.37; H 1.42; T 2.66; Q 2.58; Y 3.26; E 2.35; P 2.13; C 1.84; I 3.65; W 1.45; K 2.43; M 2.29; D 1.92; A 2.38; N 2.58; L 3.73
H8: F 2.59; W 2.17; K 3.13; R 3.29; Q 2.24; L 3.6; D 3.88; E 2.27; C 2.53; P 2.35; I 2.57; S 2.6; G 3.56; Y 4.38; N 2.03; V 2.58; T 2.38; A 3.08
N14: D 3.07; L 4.15; A 1.44; C 3.23; K 2.63; H 3.22; W 2.37; M 2.99; G 3.72; E 2.25; F 3.06; Q 1.82; P 3.55; T 2.94; Y 2.53; I 3.89; V 2.52; S 2.39
S9: T 2.15; G 2.8; M 2.31; D 3.12; P 2.39; R 1.77; F 4.2; V 4.49; K 2.83; I 2.46; N 3.57; C 1.89; A 3.55; H 2.45; L 2.95; Q 3.42; W 3.1; Y 3.69
C16: S 2.44; Y 2.18; P 2.25; M 3.28; D 2.33; L 3.05; F 3.35; A 3.4; I 2.8; Q 2.41; N 4.12; R 1.87; K 2.37; V 1.95; E 2.9; G 2.75; H 2.61; T 2.9
